Results reported in US20110311550A1 (Scripps Research, published 2011).

B1: MAb AR1A (antibody, V domains shown)
VH: LEQSGAEVKKPGSSVKVSCRASGSPYSSYTITWVRQAPGQGLEWMGGIILMTGKANYAQKFQGRVTITADRATATAYMEMSSLTSDDTAIYYCARDPYVYAGDDVRSLSRWGQGTPVIVSS
VL: not shown
notes: also called IgG1 of Fab B2
B2: MAb AR1B (antibody, V domains shown)
VH: LESGGGLVQPGGSLRLSCEASGYYFSSFAMSWVRQTPGKGLEWVSSIAGGTLGRTSYRDSVKGRFTISRDNSKNTVFLHMNNLRPEDTAVYYCAKDPLLFAGGPNWFDHWGQGTLVTVSS
VL: not shown
notes: also called IgG1 of Fab D1
B3: MAb AR2A (antibody, V domains shown)
VH: LEQSGAEMKKPGASLKVSCKTSGYTFDDYGVTWVRQAPGQGLEWMGWISAYSGNTFYARKFQGRVTMTTDPSTRTAYMELRSLRSDDTAVYFCARDRGLAINGVVFPYFGLDVWGQGTTVTVSS
VL: ELTQSPVSLPVTPGEPASISCRSSQSLLHSNGNHYLDWYLQKPGQSPQLLMYLGSNRASGVPDRFSGSGSGTDFTLKISRVEAEDVGVYYCMQGLQTPWTFGQGTKVEIKR
notes: also called IgG1 of Fab G
B4: MAb AR3C (antibody, V domains shown)
VH: LEQSGAEVKKPGSSVKVSCETSGGTLDNYALNWVRQAPGQGLEWIGGVVPLFGTTRNAQKFQGRVTISDDKSTGTGHMELRSLRSEDTAVYYCVRSVTPRYCGGGFCYGEFDYWGQGTLVTVSS
VL: ELTQSPATLSVSPGERATLSCRASQSVSSNLAWYQQKPGQAPRLLIYGASTRATGIPARFSGSGSGTEFTLTVSRLEPEDSAVYFCQQYYRSPLTFGGGTKVEIKR
notes: also called IgG1 of Fab H3
B5: MAb AR3D (antibody, V domains shown)
VH: LEQSGAEVKKPGSSVKVSCKASGDTFRSYVITWARQAPGQGLEWMGAIIPFFGTTNLAQKFQGRVTITADESTKTVYMDLSSLRSDDTAVYYCAKAGDLSVGGVLAGGVPHLRHFDPWGQGTLVTVSS
VL: ELTQSPGTLSLSPGERATLSCRAGQTVASNSLAWYQHKPGQAPRLLIYGASIRASGIPDRFSGSGSGTDFTLTISRLEPEDFAVYYCQQYGLSSTFGQGTRLEIKR
notes: also called IgG1 of Fab L4

What was measured:
[1] = target: T1, vaccinia-expressed E1E2 complex, isolate HCV-1 (genotype 1a) (hepatitis C virus, isolate HCV-1, UniProt P26664 192-383; P26664 384-746); assay: competition ELISA on HCV-1 E1E2; competitor m21 (CBH-5)
[2] = target: T2, E1E2 complex of HCV isolate H77 (genotype 1a), wild type (HCV isolate H77, UniProt P27958 192-383; P27958 384-746); assay: competition ELISA on H77 E1E2; competitor m43 (Fab P1a)
[3] = target: T1, vaccinia-expressed E1E2 complex, …; assay: competition ELISA on HCV-1 E1E2; competitor m26 (AP33)
H77 E1E2 mutant N415A = H77 E1E2 mutant N415A (HCV isolate H77, UniProt P27958 192-383; P27958 384-746); assay: ELISA, alanine mutant E1E2
H77 E1E2 mutant P525A = H77 E1E2 mutant P525A (HCV isolate H77, UniProt P27958 192-383; P27958 384-746); assay: ELISA, alanine mutant E1E2
H77 E1E2 mutant F550A = H77 E1E2 mutant F550A (HCV isolate H77, UniProt P27958 192-383; P27958 384-746); assay: ELISA, alanine mutant E1E2
H77 E1E2 mutant W487A = H77 E1E2 mutant W487A (HCV isolate H77, UniProt P27958 192-383; P27958 384-746); assay: ELISA, alanine mutant E1E2
H77 E1E2 mutant Y527A = H77 E1E2 mutant Y527A (HCV isolate H77, UniProt P27958 192-383; P27958 384-746); assay: ELISA, alanine mutant E1E2
H77 E1E2 mutant T534A = H77 E1E2 mutant T534A (HCV isolate H77, UniProt P27958 192-383; P27958 384-746); assay: ELISA, alanine mutant E1E2
H77 E1E2 mutant S419A = H77 E1E2 mutant S419A (HCV isolate H77, UniProt P27958 192-383; P27958 384-746); assay: ELISA, alanine mutant E1E2
H77 E1E2 mutant V538A = H77 E1E2 mutant V538A (HCV isolate H77, UniProt P27958 192-383; P27958 384-746); assay: ELISA, alanine mutant E1E2
H77 E1E2 mutant H421A = H77 E1E2 mutant H421A (HCV isolate H77, UniProt P27958 192-383; P27958 384-746); assay: ELISA, alanine mutant E1E2
H77 E1E2 mutant G547A = H77 E1E2 mutant G547A (HCV isolate H77, UniProt P27958 192-383; P27958 384-746); assay: ELISA, alanine mutant E1E2
H77 E1E2 mutant N540A = H77 E1E2 mutant N540A (HCV isolate H77, UniProt P27958 192-383; P27958 384-746); assay: ELISA, alanine mutant E1E2
H77 E1E2 mutant Q412A = H77 E1E2 mutant Q412A (HCV isolate H77, UniProt P27958 192-383; P27958 384-746); assay: ELISA, alanine mutant E1E2
H77 E1E2 mutant D533A = H77 E1E2 mutant D533A (HCV isolate H77, UniProt P27958 192-383; P27958 384-746); assay: ELISA, alanine mutant E1E2
H77 E1E2 mutant N532A = H77 E1E2 mutant N532A (HCV isolate H77, UniProt P27958 192-383; P27958 384-746); assay: ELISA, alanine mutant E1E2
H77 E1E2 mutant N423A = H77 E1E2 mutant N423A (HCV isolate H77, UniProt P27958 192-383; P27958 384-746); assay: ELISA, alanine mutant E1E2
H77 E1E2 mutant R483A = H77 E1E2 mutant R483A (HCV isolate H77, UniProt P27958 192-383; P27958 384-746); assay: ELISA, alanine mutant E1E2
H77 E1E2 mutant D535A = H77 E1E2 mutant D535A (HCV isolate H77, UniProt P27958 192-383; P27958 384-746); assay: ELISA, alanine mutant E1E2
H77 E1E2 mutant Y489A = H77 E1E2 mutant Y489A (HCV isolate H77, UniProt P27958 192-383; P27958 384-746); assay: ELISA, alanine mutant E1E2
[4] = target: T1, vaccinia-expressed E1E2 complex, …; assay: competition ELISA on HCV-1 E1E2; competitor m29 (2/69A)
[5] = target: T2, E1E2 complex of HCV isolate H77 …; assay: competition ELISA on H77 E1E2; competitor m46 (Fab P4)
[6] = target: T1, vaccinia-expressed E1E2 complex, …; assay: competition ELISA on HCV-1 E1E2; competitor m35 (ALP98)
[7] = target: T1, vaccinia-expressed E1E2 complex, …; assay: competition ELISA on HCV-1 E1E2; competitor m19 (CBH-4B)
[8] = target: T1, vaccinia-expressed E1E2 complex, …; assay: competition ELISA on HCV-1 E1E2; competitor m20 (CBH-2)

Binder	% residual binding [1]	% residual binding [2]	% residual binding [3]	binding vs wild-type E1E2 (H77 E1E2 mutant N415A)	binding vs wild-type E1E2 (H77 E1E2 mutant P525A)	binding vs wild-type E1E2 (H77 E1E2 mutant F550A)	binding vs wild-type E1E2 (H77 E1E2 mutant W487A)	binding vs wild-type E1E2 (H77 E1E2 mutant Y527A)	binding vs wild-type E1E2 (H77 E1E2 mutant T534A)	binding vs wild-type E1E2 (H77 E1E2 mutant S419A)	binding vs wild-type E1E2 (H77 E1E2 mutant V538A)	binding vs wild-type E1E2 (H77 E1E2 mutant H421A)	binding vs wild-type E1E2 (H77 E1E2 mutant G547A)	binding vs wild-type E1E2 (H77 E1E2 mutant N540A)	binding vs wild-type E1E2 (H77 E1E2 mutant Q412A)	% residual binding [4]	% residual binding [5]	% residual binding [6]	% residual binding [7]	% residual binding [8]	other results
B1	54%	88%	102%	106%	101%	379%	89%	61%	100%	84%	17%	167%	34%	0%	145%	86%	85%	92%	102%	83%	binding vs wild-type E1E2 (H77 E1E2 mutant D533A): 101%; binding vs wild-type E1E2 (H77 E1E2 mutant N532A): 82%; binding vs wild-type E1E2 (H77 E1E2 mutant N423A): 79%; binding vs wild-type E1E2 (H77 E1E2 mutant R483A): 64%; binding vs wild-type E1E2 (H77 E1E2 mutant D535A): 235%; binding vs wild-type E1E2 (H77 E1E2 mutant Y489A): 189%
B2	89%	100%	69%	131%	33%	257%	70%	83%	49%	118%	52%	72%	0%	25%	48%	85%	95%	92%	106%	98%	binding vs wild-type E1E2 (H77 E1E2 mutant D533A): 90%; binding vs wild-type E1E2 (H77 E1E2 mutant N532A): 73%; binding vs wild-type E1E2 (H77 E1E2 mutant N423A): 38%; binding vs wild-type E1E2 (H77 E1E2 mutant R483A): 32%; binding vs wild-type E1E2 (H77 E1E2 mutant D535A): 121%; binding vs wild-type E1E2 (H77 E1E2 mutant Y489A): 52%
B3	91%	82%	63%	122%	109%	156%	93%	149%	84%	93%	62%	84%	83%	30%	95%	82%	79%	94%	87%	93%	binding vs wild-type E1E2 (H77 E1E2 mutant D533A): 60%; binding vs wild-type E1E2 (H77 E1E2 mutant N532A): 58%; binding vs wild-type E1E2 (H77 E1E2 mutant N423A): 69%; binding vs wild-type E1E2 (H77 E1E2 mutant R483A): 68%; binding vs wild-type E1E2 (H77 E1E2 mutant D535A): 133%; binding vs wild-type E1E2 (H77 E1E2 mutant Y489A): 138%
B4	19%	145%	33%													68%	155%	99%	99%	65%	
B5	18%	138%	27%	131%	53%	320%	119%	119%	181%	73%	95%	87%	202%	56%	44%	56%	145%	97%	97%	51%	binding vs wild-type E1E2 (H77 E1E2 mutant D533A): 146%; binding vs wild-type E1E2 (H77 E1E2 mutant N532A): 159%; binding vs wild-type E1E2 (H77 E1E2 mutant N423A): 65%; binding vs wild-type E1E2 (H77 E1E2 mutant R483A): 151%; binding vs wild-type E1E2 (H77 E1E2 mutant D535A): 32%; binding vs wild-type E1E2 (H77 E1E2 mutant Y489A): 113%
